Source: patent US20210269499A1, “HEPATITIS B AND/OR HEPATITIS D-PERMISSIVE CELLS AND ANIMALS” (TECHNISCHE UNIVERSITAET MUENCHEN, priority 2018, published 2021)

Legend:
porcine NTCP = assay: Guide RNA efficiency to cause Indel mutations in porcine kidney fibroblasts (CRISPR/Cas9); assay type: cell-based; conditions: modified PX330 plasmid
Experimental: Here, porcine kidney fibroblasts were transfected with a modified PX330 plasmid, carrying an additional Puromycin selection cassette, porcine NTCP guide RNA sequence and Cas9 nuclease. Several guide RNA sequences (18 bp long) were tested for their efficiency to cause Insertion/Deletion (Indel) mutations.

HBV [1] = assay: HBV infection of HepG2 cells transfected with NTCP variants, HBeAg ELISA of supernatant; assay type: cell-based, Hepatitis B virus; conditions: HepG2 transfected with NTCP plasmid, HBV MOI 300, days 4, 7 and 10 after infection, FIG. 5A
Experimental: However, neither of these approaches was successful with porcine NTCP. […] Therefore, these human cells are a valuable tool to analyze the effect of different NTCP muteins in a human cell culture system.
HepG2 cells were transfected with plasmids coding for different variants of NTCP: human (hNTCP), porcine (pNTCP) or chimeric (pNTCP w/ hAA). After transfection, the cells were incubated for three days with 2% DMSO before they were infected with HBV at an MOI of 300. The supernatant was collected at days 4, 7 and 10 after infection and analyzed for the viral protein HBeAg by ELISA.

HBV [2] = assay: qPCR of HBV rcDNA and cccDNA in PPH; assay type: cell-based, Hepatitis B virus; conditions: day 5 after infection, FIG. 3
Experimental: (§1) Primary porcine hepatocytes (PPH) were isolated from a pig liver less than 3 h after slaughter and kept in culture: For infection experiments, the cells were seeded in a 24 well plate and for Southern Blot experiments into 6 well plates. The next day, the cells were transduced with adenovirus at an MOI of 1 or 5 (see FIG. 2) and cultured in DMEM-F12 comprising […]. The sequences of the adenoviruses are shown in SEQ ID NO: 6 for Ad-hNTCP, SEQ ID NO: 7 for Ad-phNTCP and SEQ ID NO: 8 for Ad-hNTCP-tdTomato.
(§2) On day 4 after isolation (day 3 after transduction), the cells were infected with HBV (genotype D, serotype ayw) in DMEM-F12 with 4% PEG6000 with an MOI of 1000.
On day 5 after infection, the 24 well plates were lysed, frozen and then DNA was isolated and analyzed for rcDNA or cccDNA using qPCR. In detail, total cellular DNA was extracted using NucleoSpin Tissue kit (Macherey Nagel). For selective cccDNA PCR, isolated DNA was treated with 5 units of T5 exonuclease (NEB, Frankfurt, Germany) for 30 min in 10 μl reaction volume (Xia 2017b) followed by heat-inactivation at 95° C. for 5 min and 4-fold dilution with distilled water. Two different primer sets were used to detect total intracellular HBV DNA (HBV1844F: 5′-[…]-3′ (SEQ ID NO: 9) and HBV1745R: 5′-GGAGGGATACATAG (SEQ ID NO: 10).

HBV [3] = assay: Southern Blot analysis of HBV cccDNA in PPH; assay type: cell-based, Hepatitis B virus; conditions: day 4 after infection with HBV, FIG. 4
Experimental: as §1, §2
On days 3 and 5 after HBV infection, samples were taken for HBeAg measurements. Medium was changed on day 3 after HBV infection. The 6 well plate for the Southern Blot analysis was frozen at −80° C. on day 4 after HBV infection and used for a Hirt extraction with subsequent Southern Blot. To detect protein-free forms of HBV DNA including cccDNA, a modified Hirt extraction procedure was used (Yan et al. 2012). Intracellular capsid-associated DNA was prepared as described (Ko et al. 2014). Viral DNA forms were separated on an agarose gel, transferred onto a nylon membrane, and hybridized with a digoxigenin-labeled HBV-specific probe (Ko et al. 2014). DNA signal was detected by DIG Luminescent Detection Kit (Roche).

Molecule | Indel frequency (porcine NTCP) | susceptibility of HepG2 cells to HBV (HBeAg in supernatant) (HBV [1]) | HBV cccDNA in PPH (HBV [2]) | HBV rcDNA in PPH (HBV [2]) | HBV cccDNA in Southern Blot (HBV [3])
NTCP G3: guide RNA sequence GAAGGACAAGGTGCCCTA (SEQ ID NO: 22) (expressed or natural sequence) | highest | – | – | – | –
hNTCP: human NTCP receptor (SEQ ID NO: 4) (protein, listed as Homo sapiens) MEAHNASAPFNFTLPPNFGKRPTDLALSVILVFMLFFIMLSLGCTMEFSKIKAHLWKPKGLAIALVAQYGIMPLTAFVLGKVFRLKNIEALAILVCGCSPGGNLSNVFSLAMKGDMNLSIVMTTCSTFCALGMMPLLLYIYSRGIYDGDLKDKVPYKGIVISLVLVLIPCTIGIVLKSKRPQYMRYVIKGGMIIILLCSVAVTVLSAINVGKSIMFAMTPLLIATSSLMPFIGFLLGYVLSALFCLNGRCRRTVSMETGCQNVQLCSTILNVAFPPEVIGPLFFFPLLYMIFQLGEGLLLIAIFWCYEKFKTPKDKTKMIYTAATTEETIPGALGNGTYKGEDCSP | – | susceptible to HBV | drastic increase | drastic increase | show HBV cccDNA
